The source of these data is article PMC3919625.

This assay has as its target 2G12 IgG monomer (human). Kind of assay: SEC. (SEC sorts molecules by how far they enter the pores of the column.)

Substance 2G12 IgG monomer (antibody) gave a stoichiometry N of 3.

Broadly, the stoichiometry N is the number of molecules, sites or subunits per partner or assembly.
